The record followed here is paper PMC8580805 (Biophysical Reviews, 2021).

Sequences and labels used below:
B3: photosynthetic GAPDH B-subunit from spinach (natural protein, UniProt P12860 84-451, looked up)
chain: KLKVAINGFGRIGRNFLRCWHGRKDSPLDVVVVNDSGGVKSATHLLKYDSILGTFKADVKIIDNETFSIDGKPIKVVSNRDPLKLPWAELGIDIVIEGTGVFVDGPGAGKHIQAGAKKVIITAPAKGSDIPTYVVGVNEKDYGHDVANIISNASCTTNCLAPFVKVLDEELGIVKGTMTTTHSYTGDQRLLDASHRDLRRARAAALNIVPTSTGAAKAVSLVLPQLKGKLNGIALRVPTPNVSVVDLVVNIEKVGVTAEDVNNAFRKAAAGPLKGVLDVCDIPLVSVDFRCSDFSSTIDSSLTMVMGGDMVKVVAWYDNEWGYSQRVVDLADLVANKWPGLEGSVASGDPLEDFCKDNPADEECKLYE

The target of series [1] is insect Toll receptor ectodomain (insect (species not stated)) (UniProt P08953). The series is described as follows: biophysical and cellular analysis.
Series [2] deals with the molecule itself. Put plainly: SEC-SAXS + cryo-EM structure.
Series [3] concerns the target B3. Put plainly: cryo-EM structure.
Series [4] deals with the molecule itself. The series is described as follows: cryo-EM structure.

Values joined by “and” are separate entries in the source; they are usually repeats but may differ in a detail not shown here. Equal values may be shown once.

Chain of insect Toll receptor ectodomain (insect (species not stated)) (P08953 28-807): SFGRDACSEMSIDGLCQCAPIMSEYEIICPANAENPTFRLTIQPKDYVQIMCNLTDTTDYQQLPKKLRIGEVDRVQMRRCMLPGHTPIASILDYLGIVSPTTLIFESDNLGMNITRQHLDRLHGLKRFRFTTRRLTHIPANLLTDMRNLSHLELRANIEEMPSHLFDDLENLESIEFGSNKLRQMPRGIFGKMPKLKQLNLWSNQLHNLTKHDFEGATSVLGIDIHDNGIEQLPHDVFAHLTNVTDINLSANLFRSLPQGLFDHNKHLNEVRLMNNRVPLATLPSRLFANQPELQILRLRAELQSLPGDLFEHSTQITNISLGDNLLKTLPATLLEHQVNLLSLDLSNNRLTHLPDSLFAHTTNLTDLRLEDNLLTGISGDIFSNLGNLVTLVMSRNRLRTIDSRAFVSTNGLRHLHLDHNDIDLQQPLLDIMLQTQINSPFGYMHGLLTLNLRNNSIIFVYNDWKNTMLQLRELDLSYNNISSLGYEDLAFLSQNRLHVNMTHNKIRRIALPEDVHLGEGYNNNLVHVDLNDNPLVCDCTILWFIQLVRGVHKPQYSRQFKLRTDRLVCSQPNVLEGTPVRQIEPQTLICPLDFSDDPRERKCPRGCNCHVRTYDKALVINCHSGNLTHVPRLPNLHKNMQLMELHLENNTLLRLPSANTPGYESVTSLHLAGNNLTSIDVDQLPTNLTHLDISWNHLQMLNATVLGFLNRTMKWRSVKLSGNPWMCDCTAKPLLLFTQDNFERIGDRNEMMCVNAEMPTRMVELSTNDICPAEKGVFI

With “insect cytokine ligand Spatzle (from UniProt P48607 26-326)”, the stoichiometry N (Toll per Spatzle (2:2)) in series [1] turned out to be 1.

B1: photosynthetic AB-GAPDH, A2B2 hetero-tetramer (glyceraldehyde 3-phosphate dehydrogenase) from spinach (complex)
chain 1: KLKVAINGFGRIGRNFLRCWHGRKDSPLDVVVINDTGGVKQASHLLKYDSILGTFDADVKTAGDSAISVDGKVIKVVSDRNPVNLPWGDMGIDLVIEGTGVFVDRDGAGKHLQAGAKKVLITAPGKGDIPTYVVGVNEEGYTHADTIISNASCTTNCLAPFVKVLDQKFGIIKGTMTTTHSYTGDQRLLDASHRDLRRARAACLNIVPTSTGAAKAVALVLPNLKGKLNGIALRVPTPNVSVVDLVVQVSKKTFAEEVNAAFRESADNELKGILSVCDEPLVSIDFRCTDVSSTIDSSLTMVMGDDMVKVIAWYDNEWGYSQRVVDLADIVANKWQ
chain 2: KLKVAINGFGRIGRNFLRCWHGRKDSPLDVVVVNDSGGVKSATHLLKYDSILGTFKADVKIIDNETFSIDGKPIKVVSNRDPLKLPWAELGIDIVIEGTGVFVDGPGAGKHIQAGAKKVIITAPAKGSDIPTYVVGVNEKDYGHDVANIISNASCTTNCLAPFVKVLDEELGIVKGTMTTTHSYTGDQRLLDASHRDLRRARAAALNIVPTSTGAAKAVSLVLPQLKGKLNGIALRVPTPNVSVVDLVVNIEKVGVTAEDVNNAFRKAAAGPLKGVLDVCDIPLVSVDFRCSDFSSTIDSSLTMVMGGDMVKVVAWYDNEWGYSQRVVDLADLVANKWPGLEGSVASGDPLEDFCKDNPADEECKLYE
As to B1, in series [2], the “stoichiometry N” value is 2 A2B2 tetramers per oligomer and 4 A2B2 tetramers per oligomer and 5 A2B2 tetramers per oligomer.

B2: photosynthetic GAPDH A-subunit from spinach (natural protein, UniProt P19866 66-401, looked up)
chain: KLKVAINGFGRIGRNFLRCWHGRKDSPLDVVVINDTGGVKQASHLLKYDSILGTFDADVKTAGDSAISVDGKVIKVVSDRNPVNLPWGDMGIDLVIEGTGVFVDRDGAGKHLQAGAKKVLITAPGKGDIPTYVVGVNEEGYTHADTIISNASCTTNCLAPFVKVLDQKFGIIKGTMTTTHSYTGDQRLLDASHRDLRRARAACLNIVPTSTGAAKAVALVLPNLKGKLNGIALRVPTPNVSVVDLVVQVSKKTFAEEVNAAFRESADNELKGILSVCDEPLVSIDFRCTDVSSTIDSSLTMVMGDDMVKVIAWYDNEWGYSQRVVDLADIVANKWQ
B2: the binding result in series [3] is recorded as “binds”. As for B3, the binding result in series [4] was “binds”.
